This data set has as its system Escherichia coli TOP10. As to the kind of experiment: shrunken log2 fold change of peptide-encoding DNA abundance (4.5 h post-induction vs induction); higher = less antimicrobial activity (less host growth inhibition). The conditions noted are these: time post-induction: 4.5 h; library: site-saturation at positions 5, 18, 19, 20.
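Further: peptides expressed intracellularly from a pBAD plasmid library in pooled LB shake-flask culture, induced with 0.3% L-arabinose, DNA abundance read by NGS, three biological replicates, DESeq2 with apeglm shrinkage.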

With RRIRGRPPRLPRPRPRPHSQPRP, the “shrunken log2 fold change” value was determined as 0.322.
As for RRIRPRPPRLPRPRPRPNRFPRP, the figure is -0.0502; as for RRIRERPPRLPRPRPRPKYEPRP, -0.303.
In the case of RRIRARPPRLPRPRPRPYGRPRP it was 0.0766; in that of RRIRGRPPRLPRPRPRPFFNPRP, 0.186.
As for RRIRVRPPRLPRPRPRPVERPRP, the “shrunken log2 fold change” value came to 0.0358.
For the sequence RRIRKRPPRLPRPRPRPYDIPRP, the “shrunken log2 fold change” value is -0.119.
In the case of RRIRTRPPRLPRPRPRPRASPRP it was 0.367; in that of RRIRERPPRLPRPRPRPQYMPRP, -0.213.
In the case of RRIRGRPPRLPRPRPRPPHWPRP it was 0.96.
In the case of RRIRNRPPRLPRPRPRPAWPPRP it was 0.408; in that of RRIRLRPPRLPRPRPRPVSDPRP, 0.128.
Turning to RRIRPRPPRLPRPRPRPTGSPRP, the “shrunken log2 fold change” value was 0.146.
In the case of RRIRHRPPRLPRPRPRPINLPRP it was -0.0477; in that of RRIRWRPPRLPRPRPRPHKQPRP, -0.0365; in that of RRIRSRPPRLPRPRPRPRSRPRP, 0.0341.
RRIRQRPPRLPRPRPRPGGPPRP: the “shrunken log2 fold change” value turned out to be 0.0535.
Consider RRIRLRPPRLPRPRPRPTMQPRP, for which the “shrunken log2 fold change” value is -0.0477.
In the case of RRIRGRPPRLPRPRPRPFPQPRP it was 0.717.
As for RRIRNRPPRLPRPRPRPRWFPRP, the figure is 0.173.
As for RRIRPRPPRLPRPRPRPRSRPRP, the figure is 0.386.
Take RRIRARPPRLPRPRPRPVTGPRP: the “shrunken log2 fold change” value is 0.301.
Consider RRIRSRPPRLPRPRPRPFWPPRP, for which the “shrunken log2 fold change” value is 0.315.
In the case of RRIRQRPPRLPRPRPRPGPFPRP, the “shrunken log2 fold change” value was 0.0672.
As for RRIRARPPRLPRPRPRPIHFPRP, the figure is -0.169.
In the case of RRIRLRPPRLPRPRPRPKTQPRP, the “shrunken log2 fold change” value was -0.189.
In the case of RRIRVRPPRLPRPRPRPTEEPRP it was 0.0849; in that of RRIRMRPPRLPRPRPRPSSIPRP, -0.0701.
As for RRIRYRPPRLPRPRPRPIAFPRP, the figure is -0.564; as for RRIRVRPPRLPRPRPRPIMHPRP, -0.156; as for RRIRNRPPRLPRPRPRPCVVPRP, -0.0224.
In the case of RRIRARPPRLPRPRPRPCDNPRP it was -0.273; in that of RRIRSRPPRLPRPRPRPVSEPRP, -0.125; in that of RRIRVRPPRLPRPRPRPPLWPRP, 0.646.
As to RRIRRRPPRLPRPRPRPAYPPRP, the “shrunken log2 fold change” value is 0.0273.
As for RRIRKRPPRLPRPRPRPIWGPRP, the figure is -0.0432; as for RRIRGRPPRLPRPRPRPNSTPRP, 0.344; as for RRIRFRPPRLPRPRPRPADFPRP, -0.09.
In the case of RRIRRRPPRLPRPRPRPGEAPRP, the “shrunken log2 fold change” value came out at 0.752.
As to RRIRIRPPRLPRPRPRPRECPRP, the “shrunken log2 fold change” value worked out at 0.146.
In the case of RRIRDRPPRLPRPRPRPGLEPRP it was 1; in that of RRIRRRPPRLPRPRPRPTNDPRP, 0.263.
In the case of RRIRVRPPRLPRPRPRPFATPRP it was 0.276.
Take RRIRRRPPRLPRPRPRPMWVPRP: the “shrunken log2 fold change” value is -0.135.
Turning to RRIRFRPPRLPRPRPRPTKGPRP, the “shrunken log2 fold change” value was -0.0144.
In the case of RRIRPRPPRLPRPRPRPDPHPRP it was 0.0782; in that of RRIRSRPPRLPRPRPRPNQVPRP, -0.0256; in that of RRIRCRPPRLPRPRPRPGLKPRP, -0.113.
In the case of RRIRVRPPRLPRPRPRPKSDPRP it was -0.142; in that of RRIRGRPPRLPRPRPRPKGEPRP, 0.197.
As for RRIRDRPPRLPRPRPRPQSDPRP, the figure is -0.0119; as for RRIRYRPPRLPRPRPRPDHMPRP, -0.552.
Regarding RRIRCRPPRLPRPRPRPGWRPRP, the “shrunken log2 fold change” value worked out at 0.331.
In the case of RRIRERPPRLPRPRPRPRINPRP it was -0.427; in that of RRIRFRPPRLPRPRPRPMAAPRP, -0.0736; in that of RRIRCRPPRLPRPRPRPYINPRP, -0.968.
As for RRIRYRPPRLPRPRPRPLNIPRP, the figure is -1.1; as for RRIRTRPPRLPRPRPRPYKRPRP, -0.29.
For RRIRLRPPRLPRPRPRPWCEPRP, the “shrunken log2 fold change” value was -0.271.
As to RRIRFRPPRLPRPRPRPPLTPRP, the “shrunken log2 fold change” value amounted to 0.354.
As for RRIRHRPPRLPRPRPRPHLKPRP, the figure is -0.124; as for RRIRPRPPRLPRPRPRPVKWPRP, 0.00231.
As for RRIRKRPPRLPRPRPRPQIWPRP, the figure is 0.138; as for RRIRSRPPRLPRPRPRPQRLPRP, -0.187.
In the case of RRIRTRPPRLPRPRPRPGLYPRP it was 0.194.
Turning to RRIRYRPPRLPRPRPRPAEVPRP, the “shrunken log2 fold change” value was -0.0361.
As for RRIRIRPPRLPRPRPRPANRPRP, the figure is -0.159; as for RRIRARPPRLPRPRPRPFCEPRP, 0.303.
As for RRIRNRPPRLPRPRPRPVMNPRP, the figure is -0.075; as for RRIRQRPPRLPRPRPRPQYCPRP, 0.0332.
In the case of RRIRQRPPRLPRPRPRPRLMPRP it was 0.00478; in that of RRIRSRPPRLPRPRPRPHNCPRP, -0.159.
For the sequence RRIRCRPPRLPRPRPRPTMEPRP, the “shrunken log2 fold change” value is -0.088.
In the case of RRIRGRPPRLPRPRPRPQLTPRP it was 0.644.
As for RRIRPRPPRLPRPRPRPRWRPRP, the figure is 0.542; as for RRIRQRPPRLPRPRPRPNNKPRP, -0.721.
In the case of RRIRGRPPRLPRPRPRPLQEPRP it was 1.56.
On to RRIRFRPPRLPRPRPRPVNSPRP, for which the “shrunken log2 fold change” value is -0.154.
In the case of RRIRWRPPRLPRPRPRPSWRPRP it was 0.0809; in that of RRIRFRPPRLPRPRPRPGLPPRP, 0.255; in that of RRIRPRPPRLPRPRPRPCSNPRP, 0.137.
In the case of RRIRGRPPRLPRPRPRPIKDPRP it was 0.309; in that of RRIRWRPPRLPRPRPRPFMTPRP, 0.183.
In the case of RRIRGRPPRLPRPRPRPMPWPRP it was 0.25.
Take RRIRVRPPRLPRPRPRPLKMPRP: the “shrunken log2 fold change” value was -0.561.
As for RRIRTRPPRLPRPRPRPLELPRP, the figure is -0.176.
In the case of RRIRWRPPRLPRPRPRPLMLPRP it was -0.0143; in that of RRIRHRPPRLPRPRPRPNTHPRP, -0.856; in that of RRIRKRPPRLPRPRPRPMNYPRP, 0.474.
In the case of RRIRDRPPRLPRPRPRPQQAPRP it was 0.0257; in that of RRIRSRPPRLPRPRPRPAVDPRP, 0.462; in that of RRIRERPPRLPRPRPRPFRQPRP, 0.198.
Take RRIRNRPPRLPRPRPRPCLWPRP: the “shrunken log2 fold change” value is -0.359.
As for RRIRIRPPRLPRPRPRPTVSPRP, the figure is -0.0336; as for RRIRIRPPRLPRPRPRPIIKPRP, -0.666; as for RRIRKRPPRLPRPRPRPMFQPRP, -0.0168.
In the case of RRIRWRPPRLPRPRPRPEGQPRP it was 4.45.
Take RRIRIRPPRLPRPRPRPMISPRP: the “shrunken log2 fold change” value is -0.00209.
For RRIRSRPPRLPRPRPRPDNWPRP, the “shrunken log2 fold change” value was -0.39.
As for RRIRIRPPRLPRPRPRPMKFPRP, the figure is -0.387.
As to RRIRHRPPRLPRPRPRPVCMPRP, the “shrunken log2 fold change” value is -0.0845.
As for RRIRRRPPRLPRPRPRPVERPRP, the figure is -0.049.
In the case of RRIRMRPPRLPRPRPRPYDAPRP it was 0.11; in that of RRIRFRPPRLPRPRPRPHGIPRP, -0.00151.
As for RRIRQRPPRLPRPRPRPLWAPRP, the figure is 0.00344; as for RRIRDRPPRLPRPRPRPMKPPRP, 0.0123.
Take RRIRNRPPRLPRPRPRPRMQPRP: the “shrunken log2 fold change” value is -0.0634.
As for RRIRMRPPRLPRPRPRPYGPPRP, the figure is 0.0478.
In the case of RRIRVRPPRLPRPRPRPITMPRP, the “shrunken log2 fold change” value was -0.432.
As for RRIRNRPPRLPRPRPRPDAIPRP, the figure is 0.0267.
RRIRHRPPRLPRPRPRPKKKPRP: the “shrunken log2 fold change” value was -0.0281.
As for RRIRVRPPRLPRPRPRPFHNPRP, the figure is -0.0884.
As for RRIRIRPPRLPRPRPRPYKGPRP, the figure is -0.018.
As for RRIRLRPPRLPRPRPRPDHIPRP, the figure is -0.221; as for RRIRYRPPRLPRPRPRPSGGPRP, -0.519.
RRIRRRPPRLPRPRPRPMLAPRP: the “shrunken log2 fold change” value is 0.983.
As for RRIRIRPPRLPRPRPRPPRVPRP, the figure is 0.278; as for RRIRARPPRLPRPRPRPCAEPRP, 0.977; as for RRIRQRPPRLPRPRPRPEFLPRP, 0.025.
As for RRIRFRPPRLPRPRPRPVGSPRP, the figure is -0.0263.
In the case of RRIRMRPPRLPRPRPRPGGEPRP it was 1; in that of RRIRRRPPRLPRPRPRPWLPPRP, 0.221; in that of RRIRDRPPRLPRPRPRPPKHPRP, 0.0331.
RRIRVRPPRLPRPRPRPWWSPRP: the “shrunken log2 fold change” value worked out at 0.0392.
As for RRIRARPPRLPRPRPRPQVSPRP, the figure is -0.156.

The values above are taken from the supplement of paper PMC9112550, “Optimization of the antimicrobial peptide Bac7 by deep mutational scanning” (BMC Biology, 2022).
